Measurements taken from publication PMC2919377, “A Nuclear Family A DNA Polymerase from Entamoeba histolytica Bypasses Thymine Glycol” (PLoS Neglected Tropical Diseases, 2010).

Experiments:
Test in all cases: purified protein
Type in all cases: biochemical, Entamoeba histolytica
Details in all cases: opposite cognate template base, primer-template DNA, optimised buffer (Mg2+ optimum 2.5 mM, pH optimum 7.5), 37 °C
[1] = substrate: Cc1cn([C@H]2C[C@H](O)[C@@H](COP(=O)(O)OP(=O)(O)OP(=O)(O)O)O2)c(=O)[nH]c1=O
[2] = substrate: Nc1ccn([C@H]2C[C@H](O)[C@@H](COP(=O)(O)OP(=O)(O)OP(=O)(O)O)O2)c(=O)n1
[3] = substrate: Nc1nc2c(ncn2[C@H]2C[C@H](O)[C@@H](COP(=O)(O)OP(=O)(O)OP(=O)(O)O)O2)c(=O)[nH]1
[4] = substrate: Nc1ncnc2c1ncn2[C@H]1C[C@H](O)[C@@H](COP(=O)(O)OP(=O)(O)OP(=O)(O)O)O1

B1: EhDNApolA (Entamoeba histolytica HM-1:IMSS) (protein)
chain: MEKTPRNSVDDLLMLFEDVKDNNKPVDYTKLESEETKKTENKERRKSLSINVNDEIPEKRKRKSIKQEGTPQPKVGAVFEIQYQHLPNKIDISELKELLEKIPKMEGKIMFNEKNLEQSIVINCTNNGIHALIGNSYVVLKKELLPEIINSRRLIIVYNLMEEIKNYRNNIKCILENFNTNNTIFDTYIGASTIDPGSVDGKTFSQICLVYEVIINKSTIEERLKQTRRLAVKEVEVMNNDNMIKVFQEQEMIIDGVLIEMNYCNEFKIDNKLLNEQRKKLIEEQHKIEMETKKIIGRTINLSSPEQVKKELIRFNIGIDGIKKKATTDKKILSQSDHPFAKLVLEYRKISKLLSGVIEQIRKCCIKSGDEYFIRTTWSQTAIVTGRIQSKSPNLQQIPKQSFSLPQCLIIPRDLFITHNNNTFVAIDYNQIELRILADFTKDHHLIEFFKSNTDVHRLIAAHWLKKNVNDITDDERRKAKTIVYGCIYGIGPFSLADQLHVSLDESKAFLESFLDQFPAFKKWKEETITNASTTGFVHTINNRRRRINNLTDCNDKKTVAESKRIAVNSPIQGTAADIIKMCMIEIFKKLHSSWVGVQLLLNIHDEIVLEVPDHLLDEVCVTLKHLMEHIVKLEVPLVVTVETGKKWGSLHPYNLN
notes: full-length ORF, 657 aa, about 75 kDa, N-terminal 6-His tag (pCOLD I), expressed in E. coli BL21 DE3-Rosetta II; Ni-NTA and phosphocellulose
Km [1]: 1.49 ± 0.3 µM
Vmax [1]: 0.0029 µmol/min
Km [2]: 2.1 ± 0.3 µM
Vmax [2]: 0.0032 µmol/min
Km [3]: 1.56 ± 0.2 µM
Vmax [3]: 0.0035 µmol/min
Km [4]: 2.3 ± 0.2 µM
Vmax [4]: 0.0033 µmol/min
